Results published in patent US20240343803A1 (SHANDONG SIMCERE BIOPHARMACEUTICAL, published 2024).

T1: Fusion protein of extracellular domain of human TIGIT and His-tag (human TIGIT ECD-his) (human)
T1 chain: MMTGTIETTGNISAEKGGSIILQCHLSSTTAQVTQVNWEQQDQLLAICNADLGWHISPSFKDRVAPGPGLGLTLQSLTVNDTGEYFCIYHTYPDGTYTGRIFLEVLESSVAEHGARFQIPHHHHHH

T2: Fusion protein of extracellular domain of human TIGIT and mouse IgG2a Fc fragment (human TIGIT ECD-mFc) (human)
T2 construct: The entry includes the signal peptide (limits not recoverable) and the mouse IgG2a Fc
T2 chain: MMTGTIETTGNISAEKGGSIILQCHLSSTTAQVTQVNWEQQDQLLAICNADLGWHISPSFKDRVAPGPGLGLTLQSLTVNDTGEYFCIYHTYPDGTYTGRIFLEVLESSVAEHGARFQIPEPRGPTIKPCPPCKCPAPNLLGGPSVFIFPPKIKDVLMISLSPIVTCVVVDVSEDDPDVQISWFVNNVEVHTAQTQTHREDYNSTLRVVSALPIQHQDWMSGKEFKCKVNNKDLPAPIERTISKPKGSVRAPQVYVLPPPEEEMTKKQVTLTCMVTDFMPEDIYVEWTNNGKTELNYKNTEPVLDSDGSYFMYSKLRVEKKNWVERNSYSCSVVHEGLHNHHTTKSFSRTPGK

T3: Full-length human TIGIT on CHO-K1 cells (CHO-K1 human TIGIT) (human, UniProt Q495A1 22-244)
T3 construct: NCBI XP_024309156.1; the entry includes the signal peptide (limits not recoverable); The strain (high, medium, low) is named under assay; also called high expression strain 1D2; medium expression strain 2D10
T3 sequence: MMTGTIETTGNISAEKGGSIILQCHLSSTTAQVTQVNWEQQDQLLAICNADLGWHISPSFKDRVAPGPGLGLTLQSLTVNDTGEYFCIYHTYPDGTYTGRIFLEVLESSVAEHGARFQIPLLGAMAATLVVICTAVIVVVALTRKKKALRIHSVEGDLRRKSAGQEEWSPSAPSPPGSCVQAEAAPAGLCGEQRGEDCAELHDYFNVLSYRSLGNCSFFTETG


Assays:
[1] = molecular target: T1, Fusion protein of extracellular domain …; test: BIAcore
[2] = molecular target: T2, Fusion protein of extracellular domain …; test: ELISA, human TIGIT ECD-mFc
Procedure, shortened: (§1)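 Antibodies diluted to 13 nM in 1% BSA, then 3-fold serial dilution for 12 concentrations, incubated with milk-blocked plates at 37° C for 1.5-2 h. Bound antibody detected with HRP-labelled secondary antibody (1:5000, 37° C, 1 h) and TMB, stopped with 1M HCl; OD450 nm read.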

[3] = molecular target: T1, Fusion protein of extracellular domain …; test: BIAcore; KD ratio to TIGIT-CHI-070
[4] = molecular target: T4, Fusion protein of extracellular domain of cynomolgus monkey TIGIT and mouse IgG2a Fc fragment (cynomolgus … (cynomolgus monkey)); test: ELISA, cynomolgus monkey TIGIT ECD-mFc
T4 construct: The entry includes the signal peptide (limits not recoverable) and the mouse IgG2a Fc
T4 sequence (chain, as listed by the source limits assumed): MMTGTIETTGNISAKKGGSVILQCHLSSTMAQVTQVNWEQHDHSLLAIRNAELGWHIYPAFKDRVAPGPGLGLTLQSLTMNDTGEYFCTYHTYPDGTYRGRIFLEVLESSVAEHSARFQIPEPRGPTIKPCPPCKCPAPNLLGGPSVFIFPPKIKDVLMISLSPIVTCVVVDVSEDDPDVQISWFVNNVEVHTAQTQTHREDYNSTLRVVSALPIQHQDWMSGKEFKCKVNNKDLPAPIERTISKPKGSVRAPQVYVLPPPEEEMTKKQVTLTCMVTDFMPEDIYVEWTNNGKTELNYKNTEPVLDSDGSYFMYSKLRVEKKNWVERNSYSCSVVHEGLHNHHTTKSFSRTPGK
Procedure, shortened: as §1

[5] = molecular target: T5, Full-length cynomolgus monkey TIGIT on CHO-K1 cells (CHO-K1 cynomolgus monkey TIGIT) (cynomolgus monkey); test: cell binding, CHO-K1 cynomolgus monkey TIGIT
T5 construct: NCBI XP_015300911.1
T5 sequence (chain, as listed by the source limits assumed): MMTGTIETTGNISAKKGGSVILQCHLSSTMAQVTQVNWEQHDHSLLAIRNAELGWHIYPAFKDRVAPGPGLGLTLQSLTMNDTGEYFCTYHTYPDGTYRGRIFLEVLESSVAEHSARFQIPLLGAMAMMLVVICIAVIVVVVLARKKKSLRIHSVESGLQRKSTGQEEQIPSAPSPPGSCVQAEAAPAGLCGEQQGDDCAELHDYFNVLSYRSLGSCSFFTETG
Procedure, shortened: (§2)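 Binding was measured by flow cytometry after a 60-minute, 4° C incubation of the antibodies with 2×10⁵ CHO-K1 cells displaying full-length human or cynomolgus monkey TIGIT. Antibody titration: 12 points, threefold serial dilution from 80 nM, in 1% BSA-PBS.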

[6] = molecular target: T6, Fusion protein of extracellular domain of human TIGIT and human IgG1 Fc fragment (human TIGIT ECD-hFc) (human); test: blocking of TIGIT ECD-hFc binding to CHO-K1 CD155 cells
T6 construct: The entry includes the signal peptide (limits not recoverable) and the human IgG1 Fc
T6 sequence (chain, as listed by the source limits assumed): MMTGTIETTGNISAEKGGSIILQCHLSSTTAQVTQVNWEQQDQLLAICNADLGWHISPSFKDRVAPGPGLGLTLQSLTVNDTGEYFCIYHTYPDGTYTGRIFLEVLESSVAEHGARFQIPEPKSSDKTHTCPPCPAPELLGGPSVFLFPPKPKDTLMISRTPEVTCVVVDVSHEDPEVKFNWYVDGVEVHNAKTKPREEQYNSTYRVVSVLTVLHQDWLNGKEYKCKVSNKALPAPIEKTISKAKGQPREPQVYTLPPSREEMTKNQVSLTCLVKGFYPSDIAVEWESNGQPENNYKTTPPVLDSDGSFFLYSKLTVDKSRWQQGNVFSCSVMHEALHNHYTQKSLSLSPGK
Procedure, shortened: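 Inhibition was expressed as IC50 values derived from the inhibition curves of a cell-based ELISA. CHO-K1 CD155 cells were cultured overnight, fixed, and blocked with 5% skim milk-PBS. Antibodies were first premixed for 0.5 h with human TIGIT ECD-hFc at a working concentration of 30 ng/mL, and the mixture was then added to the cells for 1.5-2 h at 37° C. Bound TIGIT was detected with HRP secondary antibody (1:5000, 37° C, 1 h) and TMB, and read as OD450 nm.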

[7] = molecular target: T3, Full-length human TIGIT on CHO-K1 cells …; test: cell binding, CHO-K1 human TIGIT high expression strain
Procedure, shortened: as §2

| Binder | Kd [1] [nM] | koff [1] [s⁻¹] | kon [1] [M⁻¹ s⁻¹] | EC50 [2] [nM] | Fold change vs chimeric antibodies (KD) [3] [fold] | EC50 [4] [nM] | EC50 [5] [nM] | IC50 [6] [nM] | EC50 [7] [nM] |
| --- | --- | --- | --- | --- | --- | --- | --- | --- | --- |
| TIGIT-070-H2L1 (antibody, V domains shown, Humanized anti-TIGIT antibody) VH: EVQLVQSGAEVKKPGASVKVSCKASGYTFTNYYMHWVRQAPGQRLEWMGRIDPDSGGSKYNEKFKSRVTITVDKLSSTAYMELSSLRSEDTAVYYCAREGHYGFYSDYWGQGTTVTVSS VL: DIQMTQSPSSLSASVGDRVTITCRVSENIYSYLAWYQQKPGKSPKLLIYNAKTLAEGVPSRFSGSGSGTDFTLTISSLQPEDFATYYCQHHYGNPLTFGPGTKVDIK | 0.0808 | 0.000134 | 1.66e+06 | 0.0129 | 0.82 | 0.0124 | 0.0799 | 0.393 | 0.0236 |
| TIGIT-070-H2L3 (antibody, V domains shown, Humanized anti-TIGIT antibody) VH: EVQLVQSGAEVKKPGASVKVSCKASGYTFTNYYMHWVRQAPGQRLEWMGRIDPDSGGSKYNEKFKSRVTITVDKLSSTAYMELSSLRSEDTAVYYCAREGHYGFYSDYWGQGTTVTVSS VL: DIVMTQSPDSLAVSLGERATINCRVSENIYSYLAWYQQKPGQSPKLLVYNAKTLAEGVPDRFSGSGSGTDFTLTISSLQAEDVAVYYCQHHYGNPLTFGPGTKVDIK | 0.0756 | 0.000134 | 1.77e+06 | 0.0119 | 0.77 | 0.0119 | 0.0774 | 0.35 | 0.0209 |
| TIGIT-070-H1L3 (antibody, V domains shown, Humanized anti-TIGIT antibody) VH: EVQLVQSGAEVKKPGASVKVSCKASGYTFTNYYMHWVRQAPGQRLEWMGRIDPDSGGSKYNEKFKSRVTITVDKSASTAYMELSSLRSEDTAVYYCAREGHYGFYSDYWGQGTTVTVSS VL: DIVMTQSPDSLAVSLGERATINCRVSENIYSYLAWYQQKPGQSPKLLVYNAKTLAEGVPDRFSGSGSGTDFTLTISSLQAEDVAVYYCQHHYGNPLTFGPGTKVDIK | 0.0724 | 0.000129 | 1.78e+06 | 0.0148 | 0.74 | 0.0137 | 0.112 | 0.445 | 0.024 |
| TIGIT-070-H1L2 (antibody, V domains shown, Humanized anti-TIGIT antibody) VH: EVQLVQSGAEVKKPGASVKVSCKASGYTFTNYYMHWVRQAPGQRLEWMGRIDPDSGGSKYNEKFKSRVTITVDKSASTAYMELSSLRSEDTAVYYCAREGHYGFYSDYWGQGTTVTVSS VL: DIQMTQSPSSLSASVGDRVTITCRVSENIYSYLAWYQQKPGKSPKLLVYNAKTLAEGVPSRFSGSGSGTDFTLTISSLQPEDFATYYCQHHYGNPLTFGPGTKVDIK | 0.0883 | 0.000148 | 1.67e+06 | 0.0118 | 0.9 | 0.0116 | 0.0879 | 0.421 | 0.0272 |
